Data taken from the Human Domainome abundance scans (Beltran et al. 2025).
± gives the uncertainty stated by the source.

B1: Telomeric repeat-binding factor 2, residues 489 to 542; numbered along this chain, Q15554 (parent)
chain: KQKWTVEESEWVKAGVQKYGEGNWAAISKNYPFVNRTAVMIKDRWRTMKRLGMN

Variants of: B1
Assay: abundance fitness (aPCA) (normalised: wild type 0, dead -1); higher = more abundant; growth selection in yeast, the domain comes from the species named
Conditions: Homo sapiens

| Variant | abundance fitness |
| --- | --- |
| V34K | -0.304 ± 0.21 |
| V34L | -0.057 ± 0.071 |
| V34M | 0.208 ± 0.11 |
| V34N | -0.564 ± 0.22 |
| V34P | -0.49 ± 0.092 |
| V34Q | 0.134 ± 0.17 |
| V34S | -0.172 ± 0.04 |
| V34T | 0.193 ± 0.12 |
| V34W | -0.366 ± 0.12 |
| V34Y | -0.331 ± 0.17 |
| N35C | -0.71 ± 0.18 |
| N35E | -0.185 ± 0.11 |
| N35F | -1.14 ± 0.26 |
| N35G | -0.259 ± 0.057 |
| N35H | -0.277 ± 0.35 |
| N35I | -0.758 ± 0.14 |
| N35K | -0.222 ± 0.21 |
| N35M | -0.555 ± 0.12 |
| N35P | -1.09 ± 0.34 |
| N35Q | 0.215 ± 0.12 |
| N35R | -0.317 ± 0.083 |
| N35S | -0.27 ± 0.041 |
| N35T | -0.476 ± 0.082 |
| N35V | -0.643 ± 0.06 |

| Variant | abundance fitness |
| --- | --- |
| N35W | -0.588 ± 0.13 |
| N35Y | -0.375 ± 0.15 |
| R36A | -0.367 ± 0.069 |
| R36C | -0.495 ± 0.12 |
| R36G | -0.816 ± 0.051 |
| R36H | -0.649 ± 0.28 |
| R36I | -0.685 ± 0.33 |
| R36K | 0.228 ± 0.098 |
| R36M | -0.693 ± 0.24 |
| R36Q | -0.897 ± 0.28 |
| R36S | -0.654 ± 0.086 |
| R36T | -0.853 ± 0.25 |
| R36V | -0.4 ± 0.051 |
| R36W | -0.95 ± 0.14 |
| R36Y | -0.614 ± 0.25 |
| T37C | -0.724 ± 0.14 |
| T37D | -0.247 ± 0.082 |
| T37F | -0.629 ± 0.15 |
| T37G | -0.668 ± 0.063 |
| T37I | -0.689 ± 0.17 |
| T37K | -0.789 ± 0.12 |
| T37L | -0.256 ± 0.054 |
| T37M | -0.974 ± 0.27 |
| T37N | -0.614 ± 0.16 |

| Variant | abundance fitness |
| --- | --- |
| T37P | -0.404 ± 0.12 |
| T37Q | -0.903 ± 0.26 |
| T37R | -0.999 ± 0.093 |
| T37V | -0.461 ± 0.085 |
| T37Y | -0.967 ± 0.41 |
| A38C | -0.336 ± 0.1 |
| A38D | -0.276 ± 0.08 |
| A38E | -0.126 ± 0.092 |
| A38F | -0.334 ± 0.16 |
| A38G | -0.371 ± 0.044 |
| A38H | -0.413 ± 0.19 |
| A38K | -0.297 ± 0.1 |
| A38L | -0.372 ± 0.08 |
| A38P | 0.014 ± 0.054 |
| A38Q | -0.15 ± 0.11 |
| A38R | -0.575 ± 0.075 |
| A38S | -0.204 ± 0.054 |
| A38T | 0.188 ± 0.18 |
| A38V | -0.123 ± 0.047 |
| A38W | 0.013 ± 0.068 |
| V39A | 0.091 ± 0.087 |
| V39C | 0.203 ± 0.086 |
| V39E | 0.008 ± 0.07 |
| V39F | -0.274 ± 0.08 |

| Variant | abundance fitness |
| --- | --- |
| V39G | -0.005 ± 0.054 |
| V39H | -0.442 ± 0.23 |
| V39I | -0.075 ± 0.13 |
| V39L | -0.154 ± 0.055 |
| V39M | 0.1 ± 0.1 |
| V39N | 0.253 ± 0.089 |
| V39P | 0.059 ± 0.12 |
| V39Q | 0.001 ± 0.087 |
| V39R | 0.032 ± 0.061 |
| V39S | 0.057 ± 0.049 |
| V39T | 0.135 ± 0.06 |
| V39Y | -0.015 ± 0.11 |
| M40A | -0.015 ± 0.058 |
| M40C | 0.169 ± 0.095 |
| M40D | 0.106 ± 0.057 |
| M40E | 0.17 ± 0.086 |
| M40F | 0.11 ± 0.12 |
| M40G | -0.406 ± 0.061 |
| M40H | -0.119 ± 0.23 |
| M40K | -0.377 ± 0.13 |
| M40L | -0.508 ± 0.057 |
| M40N | -0.53 ± 0.18 |
| M40P | -0.935 ± 0.1 |
| M40R | -0.663 ± 0.07 |

| Variant | abundance fitness |
| --- | --- |
| M40S | -0.051 ± 0.077 |
| M40T | -0.52 ± 0.058 |
| M40W | 0.066 ± 0.071 |
| M40Y | -0.869 ± 0.39 |
| I41A | -1.02 ± 0.12 |
| I41C | -0.692 ± 0.15 |
| I41D | -0.673 ± 0.16 |
| I41E | -0.975 ± 0.17 |
| I41F | -0.616 ± 0.096 |
| I41G | -1.06 ± 0.1 |
| I41N | -0.945 ± 0.15 |
| I41R | -1.16 ± 0.15 |
| I41S | -1.13 ± 0.38 |
| I41T | -0.786 ± 0.28 |
| I41V | -0.392 ± 0.056 |
| I41W | -1.01 ± 0.34 |
| K42A | -0.141 ± 0.065 |
| K42C | -0.124 ± 0.12 |
| K42D | -0.457 ± 0.23 |
| K42E | -0.016 ± 0.081 |
| K42F | -0.544 ± 0.27 |
| K42G | -0.309 ± 0.069 |
| K42H | -0.881 ± 0.42 |
| K42L | -0.571 ± 0.071 |

| Variant | abundance fitness |
| --- | --- |
| K42M | -0.207 ± 0.057 |
| K42N | -0.417 ± 0.18 |
| K42P | -0.961 ± 0.19 |
| K42R | 0.035 ± 0.041 |
| K42S | -0.16 ± 0.076 |
| K42T | -0.614 ± 0.18 |
| K42V | -0.77 ± 0.082 |
| K42W | -0.653 ± 0.13 |
| K42Y | -0.448 ± 0.2 |
| D43C | -0.449 ± 0.091 |
| D43E | -0.046 ± 0.056 |
| D43F | -0.68 ± 0.17 |
| D43G | -0.672 ± 0.097 |
| D43I | -0.866 ± 0.24 |
| D43K | 0.011 ± 0.11 |
| D43M | -0.368 ± 0.083 |
| D43N | -0.061 ± 0.1 |
| D43P | -0.942 ± 0.27 |
| D43Q | -0.07 ± 0.11 |
| D43R | -0.072 ± 0.074 |
| D43S | -0.204 ± 0.078 |
| D43W | -0.502 ± 0.073 |
| D43Y | -0.364 ± 0.12 |
| R44A | -0.236 ± 0.048 |

| Variant | abundance fitness |
| --- | --- |
| R44C | -0.214 ± 0.054 |
| R44D | -1.03 ± 0.19 |
| R44E | -0.59 ± 0.093 |
| R44F | -0.185 ± 0.048 |
| R44G | -0.466 ± 0.058 |
| R44H | 0.125 ± 0.045 |
| R44I | -0.498 ± 0.081 |
| R44K | -0.124 ± 0.049 |
| R44L | -0.22 ± 0.04 |
| R44M | -0.234 ± 0.076 |
| R44N | -0.662 ± 0.067 |
| R44P | -0.863 ± 0.08 |
| R44Q | -0.079 ± 0.051 |
| R44S | -0.508 ± 0.045 |
| R44V | -0.325 ± 0.055 |
| R44W | -0.397 ± 0.084 |
| R44Y | -0.218 ± 0.062 |
| W45A | -0.691 ± 0.06 |
| W45C | -0.81 ± 0.13 |
| W45E | -0.571 ± 0.047 |
| W45F | -0.747 ± 0.2 |
| W45G | -0.982 ± 0.12 |
| W45I | -0.65 ± 0.074 |
